One data set addresses T1, human cKIT (Homo sapiens, UniProt P10721).
T1 construct: Human cKIT tr. variant 2 , residues 26-520-TAG; made in house; host or cells: HEK293 derived cell line 293FS, transient transfection
Description: SPR (Biacore) affinity measurement. It is filed as binding. The conditions noted are these: 25° C., 1:1 model. As to the method:
Affinity of the antibodies to cKIT species orthologues and also to cKIT was determined using SPR technology using a Biacore® 2000 instrument (GE Healthcare, Pittsburgh, PA) and with CM5 sensor chips.
Briefly, HBS-P (0.01 M HEPES, pH 7.4, 0.15 M NaCl, 0.005% Surfactant P20) supplemented with 2% Odyssey® blocking buffer (Li-Cor Biosciences, Lincoln, NE) was used as the running buffer for all the experiments. The immobilization level and analyte interactions were measured by response unit (RU). Pilot experiments were performed to test and confirm the feasibility of the immobilization of the anti-human Fc antibody (Catalog number BR100839, GE Healthcare, Pittsburgh, PA) and the capture of the test antibodies.
For kinetic measurements, the experiments were performed in which the antibodies were captured to the sensor chip surface via the immobilized anti-human Fc antibody and the ability of the cKIT proteins to bind in free solution was determined. Briefly, 25 μg/ml of anti-human Fc antibody at pH 5 was immobilized on a CM5 sensor chip through amine coupling at flow rate of 5 μl/minute on all two flow cells to reach 10,500 RUs. 0.1-1 μg/ml of test antibodies were then injected at 10 μl/min for 1 minute. Captured levels of the antibodies were generally kept below 200 RUs. Subsequently, 3.125 −50 nM of cKIT receptor extracellular domains (ECD) were diluted in a 2-fold series and injected at a flow rate of 40 μl/min for 3 min over both reference and test flow cells. Table of tested ECDs is listed below (Table 6). Dissociation of the binding was followed for 10 min. After each injection cycle, the chip surface was regenerated with 3 M MgCl2 at 10 μl/min for 30 seconds.
(In SPR one partner is held on a chip, and binding of the other changes the refractive index at the surface.)

A further data set concerns primary human mast cells. Description: mast cell apoptosis (Caspase-Glo 3/7). The data set is classed as cell-based. The settings on record: 0.05-100 nM, 1.6 nM rhSCF, 48 h. As to the method: Primary human mast cells were cultured from peripheral human blood according to the methods described by Saito et al., Nature Protocols 2006; 1(4):2178-2183. Mast cells, which had been in liquid culture for a minimum of one week, were incubated with increasing concentrations (0.05-100 nM) of the anti-human cKIT Abs, NEG085 and 20376, or an isotype control IgG, in the presence of 1.6 nM rhSCF (Genscript, Cat #Z00400, Piscataway, NJ), for 48 h at 37° C. before the addition of the Caspase-Glo® 3/7 reagent (Promega, Cat #G8093, Madison, WI) to measure apoptosis. Following 30 min incubation at room temperature, luminescence was recorded on the BioTek® Synergy plate reader (BioTek, Winooski, VT).

Data set [1] concerns cKIT on normal human CD34+ bone marrow cells. Description: cKIT receptor internalization on bone marrow cells by flow cytometry. The data set is classed as cell-based. The settings on record: 10 μg/ml, 37° C. The procedure:
In another internalization experiment, the impact of NEG085 on cKIT receptor levels was evaluated on human bone marrow cells. Normal human CD34+ bone marrow cells (All Cells, Cat #ABM022F, Emeryville, CA) were thawed and washed with 10 mL of StemPro®-34 SFM medium (Gibco, Life Technologies, Carlsbad, CA). Cells were resuspended in 1.25 mL of StemPro-34 SFM medium at 4×10^5 cells/mL and split equally into two tubes. One tube was untreated, and the other was treated with 10 μg/ml of NEG085 and both were incubated at 37° C., 5% CO2. 100 μL of cell suspension was collected at each timepoint (0, 15, 30, 60, 120, and 240 min) from each condition, and placed into an ice cold collection tube to cease internalization. Cells were washed with 3 mL of ice-cold FBS stain buffer and resuspended in 100 μL of FBS stain buffer. […] of 104D2-BV421 (mouse anti-human IgG1 k, Biolegend, San Diego CA) was added to each tube and incubated on ice for 1 hour. Following another wash with FBS stain buffer, total cKIT receptors were measured by flow cytometry by assessing the mean fluorescence intensity of BV421 on a FACS Canto II® (BD Biosciences, San Jose, CA).
(In general: Flow cytometry measures light scatter and fluorescence of single cells or particles in a stream.)

The subject of data set [2] is surface cKIT on GIST-T1 cells. Description: cKIT Ab-mediated internalization by flow cytometry. The data set is classed as cell-based. The conditions noted are these: 10 μg/ml, 37° C., 30 min to 24 hr. As to the method: The kinetics of cKIT antibody mediated internalization was evaluated by treating with antibody in a cell monolayer using a temperature shift method and flow cytometry readout. GIST-T1 (kindly provided by Dr. Takahiro Taguchi, Kochi U., Japan) cells were seeded at 2.5×10E5 cells/well in five 12-well tissue culture treated plates (BD Falcon 353043). The cells were incubated in a tissue culture incubator at 37° C. with 5% CO2 overnight. The following day medium was removed and replaced with 450 μl fresh medium. The cKIT antibodies NEG085, 20376 and an isotype control were prepared at 10×10 μg/ml concentration in appropriate cell culture medium and 50 μl of test cKIT antibody or isotype was added per well with final concentration of 10 μg/ml. All cells were incubated for 1 hr on ice, followed by two washes with 1 mL 1× Phosphate buffered saline (PBS) and resuspended in 500 μl cell culture medium. […] The following day, all samples were analyzed using the BD FACSCanto II 0 equipment using a HTS system (BD Biosciences, San Jose, CA). Samples were analyzed with FlowJo software to obtain the Geometric Mean values of fluorescence for the Phycoerythrin channel, FIG. 4A is a plot of % of initial cell surface binding vs Geometric Mean-PE 4° C. binding/Geometric Mean-PE timepoint at 37° C.×100.

Entries after “also recorded” stand apart in the source; their conditions may differ.

T1 sequence (P10721 with tags, fused parts or gaps isoform P10721-2): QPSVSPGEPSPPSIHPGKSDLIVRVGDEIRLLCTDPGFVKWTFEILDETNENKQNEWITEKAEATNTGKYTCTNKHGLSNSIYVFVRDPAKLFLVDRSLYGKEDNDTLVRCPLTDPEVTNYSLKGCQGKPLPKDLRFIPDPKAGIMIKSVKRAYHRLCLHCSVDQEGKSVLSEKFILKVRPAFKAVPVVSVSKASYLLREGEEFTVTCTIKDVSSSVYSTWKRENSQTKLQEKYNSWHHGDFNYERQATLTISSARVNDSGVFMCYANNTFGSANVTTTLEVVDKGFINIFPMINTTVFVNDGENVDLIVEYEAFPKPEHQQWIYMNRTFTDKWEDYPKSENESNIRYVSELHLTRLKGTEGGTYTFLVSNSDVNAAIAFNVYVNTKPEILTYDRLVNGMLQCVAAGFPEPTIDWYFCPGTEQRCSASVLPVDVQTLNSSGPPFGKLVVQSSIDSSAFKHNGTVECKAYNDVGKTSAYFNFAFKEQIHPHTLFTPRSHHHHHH

B1: NEG085: anti-cKIT antibody of Table 3, VH SEQ ID NO 82, VL SEQ ID NO 91 (antibody, listed as Homo sapiens, V domains shown)
VH: EVQLVESGGGLVQPGGSLRLSCAASGFAFSGYYMAWVRQAPGKGLEWVANINYPGSSTYYLDSVKGRFTISRDNAKNSLYLQMNSLRAEDTAVYYCARGDYYGTTYWYFDVWGQGTTVTVSS
VL: DIQMTQSPSSLSASVGDRVTITCRASQSISSYLNWYQQKPGKAPKLLIYYTSRLQSGVPSRFSGSGSGTDFTLTISSLQPEDFATYYCQQGRRLWSFGGGTKVEIK
As to B1, the “Affinity human cKIT (nM)” value in the data set with human cKIT is recorded as “nanomolar level”. Further, the “apoptosis of primary human mast cells” value in the data set with primary human mast cells is reported as “do not mediate primary human mast cell apoptosis; also recorded: do not lead to apoptosis”. Besides, the “time of bulk of cKIT internalization” value in data set [1] amounted to 15 min. The “internalization of cKIT on human bone marrow cells” value in data set [1] (0-240 min) is recorded as “mediate rapid internalization; also recorded: rapidly internalized”. Further, in data set [2], the “internalization of surface cKIT on GIST-T1 cells” value is on record as “mediate rapid internalization; also recorded: rapidly internalized”.
